From publication PMC7673785

Target: RIPK3 (UniProt Q9Y572)
Experiment: anti-Flag co-IP, Myc blot
Details: reference: wild-type Myc-CSNK1G2; sites S211,T215

For “CSNK1G2 (from UniProt P78368) S211A/T215A”, the “binding against the reference” value was “lost”.
